This experiment deals with T1, Presenilin-1 peptide (Homo sapiens).
T1 chain: Dansyl-AFHQFYI
Kind of experiment: stopped-flow kinetics (FRET).

No end group written: not given here. *: point of attachment. Dansyl = CN(C)c1cccc2c(S(=O)(=O)*)cccc12

B1: X11 PDZ1-PDZ2-ΔC 651-827 (protein)
chain: SENCKDVFIEKQKGEILGVVIVESGWGSILPTVIIANMMHGGPAEKSGKLNIGDQIMSINGTSLVGLPLSTCQSIIKGLKNQSRVKLNIVRCPPVTTVLIRRPDLRYQLGFSVQNGIICSLMRGGIAERGGVRVGHRIIEINGQSVVATPHEKIVHILSNAVGEIHMKTMPAAMYRL
In turn, B1 yielded a Kd of 7 µM.

B2: X11 PDZ1 651-744 (protein)
chain: SENCKDVFIEKQKGEILGVVIVESGWGSILPTVIIANMMHGGPAEKSGKLNIGDQIMSINGTSLVGLPLSTCQSIIKGLKNQSRVKLNIVRCPP
B2 registered a Kd of 5.5 µM.

The values above are taken from article PMC10017356 (2023).
